# Values of other authors, collected in US8691960B2, “Oxidoreductases for enantioselective reactions” (Duke University, priority 2012, dated 2014).
# Conditions: literature (Dang et al. 2009; Gross et al. 2010)
substance,measurement,value
HsIDH1-R132C: human cytosolic NADP+-dependent isocitrate dehydrogenase (HsIDH1) R132C cancer mutant,lowering of Vmax for neomorphic activity relative to HsIDH1-R132H,2 fold
